Results taken from patent publication US20250066503A1, “CELL INJURY INDUCING THERAPEUTIC DRUG FOR USE IN CANCER THERAPY” (CHUGAI SEIYAKU KABUSHIKI KAISHA, priority 2016, published 2025).

Target: T1, human GPC3 (human, UniProt P51654 25-563)
T1 construct: range 25-563; soluble analyte; also called soluble human GPC3; glypican 3
Experiment: SPR

T1 sequence (P51654 25-563 limits assumed): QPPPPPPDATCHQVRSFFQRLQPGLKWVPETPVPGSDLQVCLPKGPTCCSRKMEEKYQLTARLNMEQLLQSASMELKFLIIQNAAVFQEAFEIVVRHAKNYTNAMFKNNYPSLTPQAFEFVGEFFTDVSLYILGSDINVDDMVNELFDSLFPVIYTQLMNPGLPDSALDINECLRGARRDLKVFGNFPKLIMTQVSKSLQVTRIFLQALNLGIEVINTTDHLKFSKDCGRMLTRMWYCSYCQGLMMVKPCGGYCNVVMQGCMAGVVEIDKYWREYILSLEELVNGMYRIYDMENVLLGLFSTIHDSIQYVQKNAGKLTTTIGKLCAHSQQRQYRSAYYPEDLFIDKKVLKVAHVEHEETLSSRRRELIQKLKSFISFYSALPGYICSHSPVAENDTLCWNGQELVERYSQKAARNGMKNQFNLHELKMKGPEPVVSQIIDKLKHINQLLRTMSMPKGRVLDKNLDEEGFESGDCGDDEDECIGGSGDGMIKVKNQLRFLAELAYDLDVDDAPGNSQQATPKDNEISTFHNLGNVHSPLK

| Binder | Kd |
| --- | --- |
| H0610-G1dh/none-Hi-Kn010G3/L0091-k0 (antibody, V domains shown, one-arm) VH: QVQLVQSGAEVKKPGASVKVSCKASGYTFTDYEMHWIRQPPGQGLEWIGAIDGKTPDTAYSQKFKGRVTLTADKSTSTAYMELSSLTSEDTAVYYCTRFYSYTYWGQGTLVTVSS VL: DIVMTQSPLSLPVTPGEPASISCRSSQSLVHSNRNTYLNWYQQKPGQAPRLLIYKVSNRFSGVPDRFSGSGSGTDFTLKISRVEAEDVGVYYCGQGTQVPYTFGQGTKLEIK | 5.43 nM |
| H0610-G1dh/none-Hi-Kn010G3/L0093-k0 (antibody, V domains shown, one-arm) VH: QVQLVQSGAEVKKPGASVKVSCKASGYTFTDYEMHWIRQPPGQGLEWIGAIDGKTPDTAYSQKFKGRVTLTADKSTSTAYMELSSLTSEDTAVYYCTRFYSYTYWGQGTLVTVSS VL: DIVMTQSPLSLPVTPGEPASISCRSSQSLVHSNRNTYLQWYQQKPGQAPRLLIYKVSNRFSGVPDRFSGSGSGTDFTLKISRVEAEDVGVYYCGQGTQVPYTFGQGTKLEIK | 0.106 nM |
| H0610-G1dh/none-Hi-Kn010G3/L0104-k0 (antibody, V domains shown, one-arm) VH: QVQLVQSGAEVKKPGASVKVSCKASGYTFTDYEMHWIRQPPGQGLEWIGAIDGKTPDTAYSQKFKGRVTLTADKSTSTAYMELSSLTSEDTAVYYCTRFYSYTYWGQGTLVTVSS VL: DIVMTQSPLSLPVTPGEPASISCRSSQSLVHSNRNTYLHWYQQKPGQAPRLLIYKVSFRFSGVPDRFSGSGSGTDFTLKISRVEAEDVGVYYCGQGTQVPYTFGQGTKLEIK | 5.9 nM |
| H0610-G1dh/none-Hi-Kn010G3/L0106-k0 (antibody, V domains shown, one-arm) VH: QVQLVQSGAEVKKPGASVKVSCKASGYTFTDYEMHWIRQPPGQGLEWIGAIDGKTPDTAYSQKFKGRVTLTADKSTSTAYMELSSLTSEDTAVYYCTRFYSYTYWGQGTLVTVSS VL: DIVMTQSPLSLPVTPGEPASISCRSSQSLVHSNRNTYLHWYQQKPGQAPRLLIYKVSHRFSGVPDRFSGSGSGTDFTLKISRVEAEDVGVYYCGQGTQVPYTFGQGTKLEIK | 5.66 nM |
| H0610-G1dh/none-Hi-Kn010G3/L0107-k0 (antibody, V domains shown, one-arm) VH: QVQLVQSGAEVKKPGASVKVSCKASGYTFTDYEMHWIRQPPGQGLEWIGAIDGKTPDTAYSQKFKGRVTLTADKSTSTAYMELSSLTSEDTAVYYCTRFYSYTYWGQGTLVTVSS VL: DIVMTQSPLSLPVTPGEPASISCRSSQSLVHSNRNTYLHWYQQKPGQAPRLLIYKVSIRFSGVPDRFSGSGSGTDFTLKISRVEAEDVGVYYCGQGTQVPYTFGQGTKLEIK | 4.38 nM |
| H0610-G1dh/none-Hi-Kn010G3/L0109-k0 (antibody, V domains shown, one-arm) VH: QVQLVQSGAEVKKPGASVKVSCKASGYTFTDYEMHWIRQPPGQGLEWIGAIDGKTPDTAYSQKFKGRVTLTADKSTSTAYMELSSLTSEDTAVYYCTRFYSYTYWGQGTLVTVSS VL: DIVMTQSPLSLPVTPGEPASISCRSSQSLVHSNRNTYLHWYQQKPGQAPRLLIYKVSMRFSGVPDRFSGSGSGTDFTLKISRVEAEDVGVYYCGQGTQVPYTFGQGTKLEIK | 5.7 nM |
| H0610-G1dh/none-Hi-Kn010G3/L0113-k0 (antibody, V domains shown, one-arm) VH: QVQLVQSGAEVKKPGASVKVSCKASGYTFTDYEMHWIRQPPGQGLEWIGAIDGKTPDTAYSQKFKGRVTLTADKSTSTAYMELSSLTSEDTAVYYCTRFYSYTYWGQGTLVTVSS VL: DIVMTQSPLSLPVTPGEPASISCRSSQSLVHSNRNTYLHWYQQKPGQAPRLLIYKVSTRFSGVPDRFSGSGSGTDFTLKISRVEAEDVGVYYCGQGTQVPYTFGQGTKLEIK | 4.82 nM |
| H0610-G1dh/none-Hi-Kn010G3/L0115-k0 (antibody, V domains shown, one-arm) VH: QVQLVQSGAEVKKPGASVKVSCKASGYTFTDYEMHWIRQPPGQGLEWIGAIDGKTPDTAYSQKFKGRVTLTADKSTSTAYMELSSLTSEDTAVYYCTRFYSYTYWGQGTLVTVSS VL: DIVMTQSPLSLPVTPGEPASISCRSSQSLVHSNRNTYLHWYQQKPGQAPRLLIYKVSWRFSGVPDRFSGSGSGTDFTLKISRVEAEDVGVYYCGQGTQVPYTFGQGTKLEIK | 4.34 nM |
| H0610-G1dh/none-Hi-Kn010G3/L0117-k0 (antibody, V domains shown, one-arm) VH: QVQLVQSGAEVKKPGASVKVSCKASGYTFTDYEMHWIRQPPGQGLEWIGAIDGKTPDTAYSQKFKGRVTLTADKSTSTAYMELSSLTSEDTAVYYCTRFYSYTYWGQGTLVTVSS VL: DIVMTQSPLSLPVTPGEPASISCRSSQSLVHSNRNTYLHWYQQKPGQAPRLLIYKVSNRASGVPDRFSGSGSGTDFTLKISRVEAEDVGVYYCGQGTQVPYTFGQGTKLEIK | 4.92 nM |
| H0610-G1dh/none-Hi-Kn010G3/L0120-k0 (antibody, V domains shown, one-arm) VH: QVQLVQSGAEVKKPGASVKVSCKASGYTFTDYEMHWIRQPPGQGLEWIGAIDGKTPDTAYSQKFKGRVTLTADKSTSTAYMELSSLTSEDTAVYYCTRFYSYTYWGQGTLVTVSS VL: DIVMTQSPLSLPVTPGEPASISCRSSQSLVHSNRNTYLHWYQQKPGQAPRLLIYKVSNRGSGVPDRFSGSGSGTDFTLKISRVEAEDVGVYYCGQGTQVPYTFGQGTKLEIK | 4.54 nM |
| H0610-G1dh/none-Hi-Kn010G3/L0122-k0 (antibody, V domains shown, one-arm) VH: QVQLVQSGAEVKKPGASVKVSCKASGYTFTDYEMHWIRQPPGQGLEWIGAIDGKTPDTAYSQKFKGRVTLTADKSTSTAYMELSSLTSEDTAVYYCTRFYSYTYWGQGTLVTVSS VL: DIVMTQSPLSLPVTPGEPASISCRSSQSLVHSNRNTYLHWYQQKPGQAPRLLIYKVSNRISGVPDRFSGSGSGTDFTLKISRVEAEDVGVYYCGQGTQVPYTFGQGTKLEIK | 2.42 nM |
| H0610-G1dh/none-Hi-Kn010G3/L0123-k0 (antibody, V domains shown, one-arm) VH: QVQLVQSGAEVKKPGASVKVSCKASGYTFTDYEMHWIRQPPGQGLEWIGAIDGKTPDTAYSQKFKGRVTLTADKSTSTAYMELSSLTSEDTAVYYCTRFYSYTYWGQGTLVTVSS VL: DIVMTQSPLSLPVTPGEPASISCRSSQSLVHSNRNTYLHWYQQKPGQAPRLLIYKVSNRKSGVPDRFSGSGSGTDFTLKISRVEAEDVGVYYCGQGTQVPYTFGQGTKLEIK | 5.08 nM |
| H0610-G1dh/none-Hi-Kn010G3/L0124-k0 (antibody, V domains shown, one-arm) VH: QVQLVQSGAEVKKPGASVKVSCKASGYTFTDYEMHWIRQPPGQGLEWIGAIDGKTPDTAYSQKFKGRVTLTADKSTSTAYMELSSLTSEDTAVYYCTRFYSYTYWGQGTLVTVSS VL: DIVMTQSPLSLPVTPGEPASISCRSSQSLVHSNRNTYLHWYQQKPGQAPRLLIYKVSNRLSGVPDRFSGSGSGTDFTLKISRVEAEDVGVYYCGQGTQVPYTFGQGTKLEIK | 0.972 nM |
| H0610-G1dh/none-Hi-Kn010G3/L0125-k0 (antibody, V domains shown, one-arm) VH: QVQLVQSGAEVKKPGASVKVSCKASGYTFTDYEMHWIRQPPGQGLEWIGAIDGKTPDTAYSQKFKGRVTLTADKSTSTAYMELSSLTSEDTAVYYCTRFYSYTYWGQGTLVTVSS VL: DIVMTQSPLSLPVTPGEPASISCRSSQSLVHSNRNTYLHWYQQKPGQAPRLLIYKVSNRMSGVPDRFSGSGSGTDFTLKISRVEAEDVGVYYCGQGTQVPYTFGQGTKLEIK | 1.71 nM |
| H0610-G1dh/none-Hi-Kn010G3/L0126-k0 (antibody, V domains shown, one-arm) VH: QVQLVQSGAEVKKPGASVKVSCKASGYTFTDYEMHWIRQPPGQGLEWIGAIDGKTPDTAYSQKFKGRVTLTADKSTSTAYMELSSLTSEDTAVYYCTRFYSYTYWGQGTLVTVSS VL: DIVMTQSPLSLPVTPGEPASISCRSSQSLVHSNRNTYLHWYQQKPGQAPRLLIYKVSNRNSGVPDRFSGSGSGTDFTLKISRVEAEDVGVYYCGQGTQVPYTFGQGTKLEIK | 5.62 nM |
| H0610-G1dh/none-Hi-Kn010G3/L0127-k0 (antibody, V domains shown, one-arm) VH: QVQLVQSGAEVKKPGASVKVSCKASGYTFTDYEMHWIRQPPGQGLEWIGAIDGKTPDTAYSQKFKGRVTLTADKSTSTAYMELSSLTSEDTAVYYCTRFYSYTYWGQGTLVTVSS VL: DIVMTQSPLSLPVTPGEPASISCRSSQSLVHSNRNTYLHWYQQKPGQAPRLLIYKVSNRPSGVPDRFSGSGSGTDFTLKISRVEAEDVGVYYCGQGTQVPYTFGQGTKLEIK | 3.12 nM |
| H0610-G1dh/none-Hi-Kn010G3/L0129-k0 (antibody, V domains shown, one-arm) VH: QVQLVQSGAEVKKPGASVKVSCKASGYTFTDYEMHWIRQPPGQGLEWIGAIDGKTPDTAYSQKFKGRVTLTADKSTSTAYMELSSLTSEDTAVYYCTRFYSYTYWGQGTLVTVSS VL: DIVMTQSPLSLPVTPGEPASISCRSSQSLVHSNRNTYLHWYQQKPGQAPRLLIYKVSNRRSGVPDRFSGSGSGTDFTLKISRVEAEDVGVYYCGQGTQVPYTFGQGTKLEIK | 5.28 nM |
| H0610-G1dh/none-Hi-Kn010G3/L0132-k0 (antibody, V domains shown, one-arm) VH: QVQLVQSGAEVKKPGASVKVSCKASGYTFTDYEMHWIRQPPGQGLEWIGAIDGKTPDTAYSQKFKGRVTLTADKSTSTAYMELSSLTSEDTAVYYCTRFYSYTYWGQGTLVTVSS VL: DIVMTQSPLSLPVTPGEPASISCRSSQSLVHSNRNTYLHWYQQKPGQAPRLLIYKVSNRVSGVPDRFSGSGSGTDFTLKISRVEAEDVGVYYCGQGTQVPYTFGQGTKLEIK | 5.65 nM |
| H0610-G1dh/none-Hi-Kn010G3/L0134-k0 (antibody, V domains shown, one-arm) VH: QVQLVQSGAEVKKPGASVKVSCKASGYTFTDYEMHWIRQPPGQGLEWIGAIDGKTPDTAYSQKFKGRVTLTADKSTSTAYMELSSLTSEDTAVYYCTRFYSYTYWGQGTLVTVSS VL: DIVMTQSPLSLPVTPGEPASISCRSSQSLVHSNRNTYLHWYQQKPGQAPRLLIYKVSNRYSGVPDRFSGSGSGTDFTLKISRVEAEDVGVYYCGQGTQVPYTFGQGTKLEIK | 2.53 nM |
| H0610-G1dh/none-Hi-Kn010G3/L0136-k0 (antibody, V domains shown, one-arm) VH: QVQLVQSGAEVKKPGASVKVSCKASGYTFTDYEMHWIRQPPGQGLEWIGAIDGKTPDTAYSQKFKGRVTLTADKSTSTAYMELSSLTSEDTAVYYCTRFYSYTYWGQGTLVTVSS VL: DIVMTQSPLSLPVTPGEPASISCRSSQSLVHSNRNTYLHWYQQKPGQAPRLLIYKVSNRFFGVPDRFSGSGSGTDFTLKISRVEAEDVGVYYCGQGTQVPYTFGQGTKLEIK | 5.04 nM |
| H0610-G1dh/none-Hi-Kn010G3/L0137-k0 (antibody, V domains shown, one-arm) VH: QVQLVQSGAEVKKPGASVKVSCKASGYTFTDYEMHWIRQPPGQGLEWIGAIDGKTPDTAYSQKFKGRVTLTADKSTSTAYMELSSLTSEDTAVYYCTRFYSYTYWGQGTLVTVSS VL: DIVMTQSPLSLPVTPGEPASISCRSSQSLVHSNRNTYLHWYQQKPGQAPRLLIYKVSNRFGGVPDRFSGSGSGTDFTLKISRVEAEDVGVYYCGQGTQVPYTFGQGTKLEIK | 5.87 nM |
| H0610-G1dh/none-Hi-Kn010G3/L0138-k0 (antibody, V domains shown, one-arm) VH: QVQLVQSGAEVKKPGASVKVSCKASGYTFTDYEMHWIRQPPGQGLEWIGAIDGKTPDTAYSQKFKGRVTLTADKSTSTAYMELSSLTSEDTAVYYCTRFYSYTYWGQGTLVTVSS VL: DIVMTQSPLSLPVTPGEPASISCRSSQSLVHSNRNTYLHWYQQKPGQAPRLLIYKVSNRFHGVPDRFSGSGSGTDFTLKISRVEAEDVGVYYCGQGTQVPYTFGQGTKLEIK | 5.24 nM |
